For the experiment, the target named is FcγRIIIa on Jurkat effector cells (UniProt P08637). In words: cell-based or functional assay.
Sequence of FcγRIIIa on Jurkat effector cells (P08637 17-254 limits assumed): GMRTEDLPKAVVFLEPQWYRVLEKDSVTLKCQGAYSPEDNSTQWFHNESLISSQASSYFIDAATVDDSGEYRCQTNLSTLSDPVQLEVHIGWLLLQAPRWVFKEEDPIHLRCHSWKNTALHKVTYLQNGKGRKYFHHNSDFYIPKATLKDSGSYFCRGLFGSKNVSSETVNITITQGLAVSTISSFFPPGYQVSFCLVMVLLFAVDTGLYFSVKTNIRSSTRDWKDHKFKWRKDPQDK

B1: templated αCD16-Fab construct with the C-terminal fusion (175Cys trastuzumab Fab + C-terminal meditope αCD16 nanobody) (bispecific antibody, part only; not given: trastuzumab Fab chains, V domains shown, part only)
VHH: EVQLVESGGELVQAGGSLRLSCAASGLTFSSYNMGWFRRAPGKEREFVASITWSGRDTFYADSVKGRFTISRDNAKNTVYLQMSSLKPEDTAVYYCAANPWPVAAPRSGTYWGQGTQVTVSSGSHHHHHHGGSQFDLCTRRLQS
B1 came in with an EC50 of in vitro ADCC reporter assay (SKBR3 targets, Jurkat effector cells), independent measurement 1 of 3.2 pM and an EC50 of in vitro ADCC reporter assay (SKBR3 targets, Jurkat effector cells), independent measurement 2 of 4.7 pM.

Source of the values: patent US20200368364A1, “CYSTEINE PEPTIDE-ENABLED ANTIBODIES” (City of Hope, priority 2016, published 2020).
